Measured values: the supplement of paper PMC9112550, “Optimization of the antimicrobial peptide Bac7 by deep mutational scanning” (BMC Biology, 2022)

Each sequence was assayed on Escherichia coli TOP10 (assay: shrunken log2 fold change of peptide-encoding DNA abundance (4.5 h post-induction vs induction); higher = less antimicrobial activity (less host growth inhibition)). Conditions: time post-induction: 4.5 h; library: site-saturation at positions 5, 18, 19, 20.
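Also: peptides expressed intracellularly from a pBAD plasmid library in pooled LB shake-flask culture, induced with 0.3% L-arabinose, DNA abundance read by NGS, three biological replicates, DESeq2 with apeglm shrinkage.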

Row | Sequence | shrunken log2 fold change
1 | RRIRWRPPRLPRPRPRPQCWPRP | 0.0793
2 | RRIRMRPPRLPRPRPRPDNFPRP | -0.184
3 | RRIRGRPPRLPRPRPRPQIHPRP | 0.32
4 | RRIRFRPPRLPRPRPRPLVRPRP | -0.102
5 | RRIRERPPRLPRPRPRPHDMPRP | -0.0911
6 | RRIRPRPPRLPRPRPRPFVEPRP | -0.0706
7 | RRIRWRPPRLPRPRPRPEDGPRP | 0.173
8 | RRIRSRPPRLPRPRPRPCNLPRP | -0.561
9 | RRIRIRPPRLPRPRPRPRYKPRP | -0.593
10 | RRIRMRPPRLPRPRPRPVVQPRP | -0.0427
11 | RRIRTRPPRLPRPRPRPMCYPRP | -0.252
12 | RRIRGRPPRLPRPRPRPDVAPRP | 1.98
13 | RRIRRRPPRLPRPRPRPCCHPRP | -0.345
14 | RRIRGRPPRLPRPRPRPCAPPRP | 0.826
15 | RRIRNRPPRLPRPRPRPLMIPRP | -0.0419
16 | RRIRYRPPRLPRPRPRPQNGPRP | -0.152
17 | RRIRERPPRLPRPRPRPVNTPRP | -0.34
18 | RRIRFRPPRLPRPRPRPATDPRP | -0.0766
19 | RRIRKRPPRLPRPRPRPAVRPRP | 0.951
20 | RRIRCRPPRLPRPRPRPPGGPRP | 0.539
21 | RRIRRRPPRLPRPRPRPIFSPRP | 1.06
22 | RRIRMRPPRLPRPRPRPLWMPRP | 0.0202
23 | RRIRSRPPRLPRPRPRPDHCPRP | -0.0225
24 | RRIRQRPPRLPRPRPRPFIMPRP | -1.46
25 | RRIRFRPPRLPRPRPRPWAVPRP | -0.0667

Row | Sequence | shrunken log2 fold change
26 | RRIRWRPPRLPRPRPRPYKLPRP | -0.327
27 | RRIRPRPPRLPRPRPRPTSDPRP | 0.0712
28 | RRIRQRPPRLPRPRPRPFGWPRP | -0.0154
29 | RRIRSRPPRLPRPRPRPKSDPRP | -0.082
30 | RRIRYRPPRLPRPRPRPAHVPRP | -0.144
31 | RRIRDRPPRLPRPRPRPCNNPRP | -0.931
32 | RRIRVRPPRLPRPRPRPGLHPRP | -0.0936
33 | RRIRMRPPRLPRPRPRPQVAPRP | 0.0435
34 | RRIRCRPPRLPRPRPRPLFDPRP | -0.426
35 | RRIRGRPPRLPRPRPRPNDAPRP | 0.0548
36 | RRIRARPPRLPRPRPRPTMNPRP | 0.0878
37 | RRIRNRPPRLPRPRPRPGNCPRP | -0.00183
38 | RRIRRRPPRLPRPRPRPRGRPRP | 0.319
39 | RRIRLRPPRLPRPRPRPLSRPRP | -0.247
40 | RRIRIRPPRLPRPRPRPNDIPRP | -1.11
41 | RRIRHRPPRLPRPRPRPYFNPRP | -0.882
42 | RRIRLRPPRLPRPRPRPEYHPRP | 0.0779
43 | RRIRARPPRLPRPRPRPFYGPRP | -0.0165
44 | RRIRTRPPRLPRPRPRPNKIPRP | -0.799
45 | RRIRSRPPRLPRPRPRPHQHPRP | -0.321
46 | RRIRNRPPRLPRPRPRPKFEPRP | 0.0146
47 | RRIRDRPPRLPRPRPRPNRHPRP | -0.327
48 | RRIRGRPPRLPRPRPRPKDCPRP | 0.427
49 | RRIRYRPPRLPRPRPRPGALPRP | 0.137
50 | RRIRKRPPRLPRPRPRPKVGPRP | 0.00386

Row | Sequence | shrunken log2 fold change
51 | RRIRYRPPRLPRPRPRPTPYPRP | -0.847
52 | RRIRHRPPRLPRPRPRPHSNPRP | -0.167
53 | RRIRRRPPRLPRPRPRPKVGPRP | -0.119
54 | RRIRERPPRLPRPRPRPGYRPRP | -0.408
55 | RRIRQRPPRLPRPRPRPDMVPRP | -0.0075
56 | RRIRGRPPRLPRPRPRPDLDPRP | 1.21
57 | RRIRERPPRLPRPRPRPTQWPRP | 0.00138
58 | RRIRRRPPRLPRPRPRPPEGPRP | 0.657
59 | RRIRSRPPRLPRPRPRPNIQPRP | -0.28
60 | RRIRCRPPRLPRPRPRPNIEPRP | -0.279
61 | RRIRQRPPRLPRPRPRPLQWPRP | 0.123
62 | RRIRPRPPRLPRPRPRPIYGPRP | -0.0498
63 | RRIRTRPPRLPRPRPRPPCEPRP | 0.0977
64 | RRIRGRPPRLPRPRPRPWNKPRP | -0.306
65 | RRIRTRPPRLPRPRPRPIMRPRP | 0.25
66 | RRIRSRPPRLPRPRPRPDAQPRP | 0.406
67 | RRIRQRPPRLPRPRPRPWYLPRP | -0.176
68 | RRIRFRPPRLPRPRPRPYCWPRP | -0.652
69 | RRIRCRPPRLPRPRPRPNPRPRP | 0.378
70 | RRIRFRPPRLPRPRPRPEPIPRP | 0.291
71 | RRIRSRPPRLPRPRPRPEKRPRP | -0.0813
72 | RRIRRRPPRLPRPRPRPNHNPRP | -0.329
73 | RRIRHRPPRLPRPRPRPVYRPRP | -0.305
74 | RRIRSRPPRLPRPRPRPVDYPRP | -0.268
75 | RRIRHRPPRLPRPRPRPIFLPRP | -0.572

Row | Sequence | shrunken log2 fold change
76 | RRIRWRPPRLPRPRPRPAGNPRP | 0.396
77 | RRIRPRPPRLPRPRPRPNIAPRP | 0.225
78 | RRIRIRPPRLPRPRPRPRCKPRP | -0.35
79 | RRIRMRPPRLPRPRPRPLIGPRP | -0.0325
80 | RRIRIRPPRLPRPRPRPKCFPRP | -0.852
81 | RRIRARPPRLPRPRPRPPTIPRP | 0.0349
82 | RRIRFRPPRLPRPRPRPCRSPRP | 0.974
83 | RRIRQRPPRLPRPRPRPMSNPRP | 0.0758
84 | RRIRRRPPRLPRPRPRPMVYPRP | 0.119
85 | RRIRKRPPRLPRPRPRPRWIPRP | 0.112
86 | RRIRERPPRLPRPRPRPQYGPRP | -0.0797
87 | RRIRNRPPRLPRPRPRPMKSPRP | -0.106
88 | RRIRDRPPRLPRPRPRPELKPRP | -0.00616
89 | RRIRDRPPRLPRPRPRPTDPPRP | 0.0862
90 | RRIRDRPPRLPRPRPRPWKRPRP | -0.0239
91 | RRIRIRPPRLPRPRPRPWGEPRP | -0.0259
92 | RRIRARPPRLPRPRPRPQSSPRP | -0.0298
93 | RRIRQRPPRLPRPRPRPRMKPRP | -0.249
94 | RRIRWRPPRLPRPRPRPRWAPRP | 0.662
95 | RRIRCRPPRLPRPRPRPSDFPRP | -0.203
96 | RRIRTRPPRLPRPRPRPDLIPRP | -0.0343
97 | RRIRTRPPRLPRPRPRPFCTPRP | -0.316
98 | RRIRYRPPRLPRPRPRPNSHPRP | -0.839
99 | RRIRGRPPRLPRPRPRPEWVPRP | 0.875
100 | RRIRQRPPRLPRPRPRPDIGPRP | -0.0932

Row | Sequence | shrunken log2 fold change
101 | RRIRSRPPRLPRPRPRPIMSPRP | -0.173
102 | RRIRRRPPRLPRPRPRPTDLPRP | -0.162
103 | RRIRKRPPRLPRPRPRPLRTPRP | 0.727
104 | RRIRFRPPRLPRPRPRPRPCPRP | 0.386
105 | RRIRERPPRLPRPRPRPWDLPRP | -0.164
106 | RRIRDRPPRLPRPRPRPVCHPRP | -0.0164
107 | RRIRGRPPRLPRPRPRPTSLPRP | 0.542
108 | RRIRYRPPRLPRPRPRPNRGPRP | -0.124
109 | RRIRSRPPRLPRPRPRPLAPPRP | 0.223
110 | RRIRSRPPRLPRPRPRPQYKPRP | -0.464
111 | RRIRNRPPRLPRPRPRPASCPRP | -0.233
112 | RRIRNRPPRLPRPRPRPEREPRP | 0.256
113 | RRIRNRPPRLPRPRPRPPESPRP | -0.000194
114 | RRIRVRPPRLPRPRPRPQRNPRP | -0.0128
115 | RRIRVRPPRLPRPRPRPCLQPRP | -0.421
116 | RRIRTRPPRLPRPRPRPVWFPRP | 0.0412
117 | RRIRFRPPRLPRPRPRPQQCPRP | -0.181
118 | RRIRKRPPRLPRPRPRPALAPRP | 0.885
119 | RRIRFRPPRLPRPRPRPGKVPRP | -0.216
120 | RRIRIRPPRLPRPRPRPRTKPRP | 0.161
121 | RRIRCRPPRLPRPRPRPGVDPRP | -0.0475
122 | RRIRCRPPRLPRPRPRPPHGPRP | 0.499
123 | RRIRLRPPRLPRPRPRPPRMPRP | 0.232
124 | RRIRRRPPRLPRPRPRPHKKPRP | 0.228
125 | RRIRYRPPRLPRPRPRPHLHPRP | -1.12

Row | Sequence | shrunken log2 fold change
126 | RRIRKRPPRLPRPRPRPTEHPRP | 0.279
127 | RRIRLRPPRLPRPRPRPPVTPRP | 0.353
128 | RRIRYRPPRLPRPRPRPNYPPRP | -0.79
129 | RRIRMRPPRLPRPRPRPGVQPRP | 0.16
130 | RRIRFRPPRLPRPRPRPFSGPRP | -0.0879
131 | RRIRARPPRLPRPRPRPSMFPRP | 0.00699
132 | RRIRLRPPRLPRPRPRPSVDPRP | -0.462
133 | RRIRSRPPRLPRPRPRPAYMPRP | -0.608
134 | RRIRFRPPRLPRPRPRPFMRPRP | 0.559
135 | RRIRSRPPRLPRPRPRPNDAPRP | 0.0331
136 | RRIRKRPPRLPRPRPRPVKNPRP | 0.00783
137 | RRIRLRPPRLPRPRPRPFDHPRP | -0.0264
138 | RRIRFRPPRLPRPRPRPKYTPRP | -0.657
139 | RRIRCRPPRLPRPRPRPYCMPRP | -1.09
140 | RRIRDRPPRLPRPRPRPKMAPRP | 0.38
141 | RRIRMRPPRLPRPRPRPKSSPRP | 0.763
142 | RRIRWRPPRLPRPRPRPEKRPRP | 0.028
143 | RRIRCRPPRLPRPRPRPKILPRP | -0.0835
144 | RRIRTRPPRLPRPRPRPDFCPRP | -0.311
145 | RRIRERPPRLPRPRPRPYLPPRP | -0.392
146 | RRIRERPPRLPRPRPRPNQLPRP | -0.0673
147 | RRIRERPPRLPRPRPRPNFLPRP | -0.114
148 | RRIRYRPPRLPRPRPRPDHNPRP | -0.217
149 | RRIRQRPPRLPRPRPRPCQCPRP | -0.034
150 | RRIRNRPPRLPRPRPRPLTWPRP | -0.182
